From US20260234206A1

Key:
calmodulin [1] = biological target: calmodulin (UniProt P0DP23); test: SPR, CaM immobilised, SXkmer A injected, BiaEvaluate fit
calmodulin [2] = biological target: calmodulin (UniProt P0DP23); test: microscale thermophoresis, labelled SXkmer A with free calmodulin in solution

koff (calmodulin [1]): 1e-06 s⁻¹ | Kd (calmodulin [2]): 140 nM
Substance: Loop calmodulin binder SXkmer A (KMRPGVN) (designed binder)
